Assay [1] has as its target DH3 anti-DLL3 trispecific protein. Description: Octet BLI, single 50 nM. As for the experimental part:
(§1) Using conditioned media containing known concentrations of anti-DLL3 trispecific proteins, the binding affinities of the anti-DLL3 trispecific proteins toward human and cynomolgus monkey DLL3 proteins were measured, using a method where the DLL3 proteins were expressed as human IgG1-Fc fusions and the measurements were carried out using an Octet instrument with anti-human Fc tips.

For assay [2], the target named is DH1 anti-DLL3 trispecific protein. The experiment in a line: Octet BLI, DLL3-Fc on anti-human Fc tips, single 50 nM. The method, then: as §1
Assay [3] has as its target DH10 anti-DLL3 trispecific protein. The description is as above. As for the experimental part: as §1
Assay [4] concerns the target DH11 anti-DLL3 trispecific protein. Described as above. The method, then:
as §1

The target of assay [5] is DH12 anti-DLL3 trispecific protein. The assay is described as above. The method, then:
as §1

The target in assay [6] is DH15 anti-DLL3 trispecific protein. The assay is described as above. As for the experimental part: as §1
Assay [7] addresses DH17 anti-DLL3 trispecific protein. The description is as above. The method, then: as §1
Assay [8] concerns the target DH18 anti-DLL3 trispecific protein. The description is as above. The method, then: as §1
The target in assay [9] is DH2 anti-DLL3 trispecific protein. The description is as above. The method, then:
as §1

The target in assay [10] is DH22 anti-DLL3 trispecific protein. Described as above. The method, then: as §1
Assay [11] deals with DH23 anti-DLL3 trispecific protein. Described as above. As for the experimental part: as §1
Assay [12] addresses DH27 anti-DLL3 trispecific protein. The description is as above. As for the experimental part:
as §1

The target in assay [13] is DH29 anti-DLL3 trispecific protein. The assay is described as above. The method, then: as §1
Assay [14] has as its target DH3 anti-DLL3 trispecific protein. The description is as above. The method, then:
as §1

The target in assay [15] is DH38 anti-DLL3 trispecific protein. Described as above. As for the experimental part: as §1
For assay [16], the target named is DH42 anti-DLL3 trispecific protein. The assay is described as above. As for the experimental part:
as §1

In assay [17] the target is DH43 anti-DLL3 trispecific protein. The description is as above. As for the experimental part:
as §1

Assay [18] concerns the target DH45 anti-DLL3 trispecific protein. Described as above. The method, then: as §1
The target in assay [19] is DH5 anti-DLL3 trispecific protein. Described as above. The method, then:
as §1

Assay [20] concerns the target DH51 anti-DLL3 trispecific protein. The assay is described as above. As for the experimental part: as §1
The target in assay [21] is DH54 anti-DLL3 trispecific protein. The assay is described as above. As for the experimental part: as §1
Assay [22] has as its target DH56 anti-DLL3 trispecific protein. The assay is described as above. As for the experimental part: as §1
Assay [23] deals with DH58 anti-DLL3 trispecific protein. Described as above. The method, then: as §1
For assay [24], the target named is DH6 anti-DLL3 trispecific protein. The assay is described as above. The method, then: as §1
Assay [25] concerns the target DH61 anti-DLL3 trispecific protein. Described as above. The method, then:
as §1

Assay [26] addresses DH67 anti-DLL3 trispecific protein. The description is as above. As for the experimental part:
as §1

The target in assay [27] is DH69 anti-DLL3 trispecific protein. Described as above. The method, then:
as §1

Assay [28] deals with DH70 anti-DLL3 trispecific protein. Described as above. As for the experimental part:
as §1

The target of assay [29] is DH80 anti-DLL3 trispecific protein. The assay is described as above. The method, then:
as §1

Assay [30] has as its target DH82 anti-DLL3 trispecific protein. The description is as above. The method, then: as §1
The target in assay [31] is DH83 anti-DLL3 trispecific protein. Described as above. As for the experimental part:
as §1

Assay [32] concerns the target DH84 anti-DLL3 trispecific protein. The description is as above. The method, then:
as §1

For assay [33], the target named is DH89 anti-DLL3 trispecific protein. Described as above. The method, then:
as §1

For assay [34], the target named is DH92 anti-DLL3 trispecific protein. Described as above. As for the experimental part:
as §1

For assay [35], the target named is DH94 anti-DLL3 trispecific protein. Described as above. As for the experimental part: as §1
In assay [36] the target is T1, 52C4 anti-DLL3 trispecific protein (CHO expressed, purified) (biotinylated).
T1 construct: also called 52C04
The experiment in a line: Octet BLI, biotinylated trispecific on streptavidin tips.

Assay [37] deals with DH43 anti-DLL3 trispecific protein. Description: Octet BLI, 60/20/6.67/2.22 nM. As for the experimental part: (§2) Using the conditioned medium with known concentrations of the anti-DLL3 trispecific proteins, the binding affinities of the anti-DLL3 trispecific proteins toward human DLL3 protein were measured using a method where biotinylated version of human DLL3 protein were expressed as a human IgG1 fusion protein, and the binding affinity measurement was carried out in an Octet instrument with streptavidin tips.
(Biolayer interferometry detects binding as a change in optical thickness at a sensor tip.)

Assay [38] has as its target DH6 anti-DLL3 trispecific protein. The experiment in a line: Octet BLI, 60/20/6.67/2.22 nM. The method, then: as §2
The target of assay [39] is 53A05 anti-DLL3 trispecific protein. The experiment in a line: Octet BLI, streptavidin tips, single 50 nM. The method, then:
(§3) Using the conditioned medium with known concentrations of the anti-DLL3 trispecific proteins, the relative binding affinities of the anti-DLL3 trispecific proteins toward human DLL3 protein were measured using a method where biotinylated version of human DLL3 protein were expressed as a human IgG1 fusion protein, and the binding affinity measurement was carried out in an Octet instrument with streptavidin tips.

Assay [40] deals with 41D07 anti-DLL3 trispecific protein. The experiment in a line: Octet BLI, streptavidin tips, single 50 nM. The method, then: as §3
Assay [41] addresses DH43 anti-DLL3 trispecific protein. Description: Octet BLI, single 50 nM, four samples of conditioned medium. As for the experimental part:
as §2

The target of assay [42] is DH6 anti-DLL3 trispecific protein. The assay is described as above. As for the experimental part: as §2
In assay [43] the target is DH43 anti-DLL3 trispecific protein. The experiment in a line: Octet BLI, single 60 nM.
The target of assay [44] is DH6 anti-DLL3 trispecific protein. The experiment in a line: Octet BLI, single 60 nM.
The target of assay [45] is 51G10 anti-DLL3 trispecific protein (CHO expressed, purified) (biotinylated). The experiment in a line: Octet BLI, biotinylated trispecific on streptavidin tips.
The target in assay [46] is T2, 51G2 anti-DLL3 trispecific protein (CHO expressed, purified) (biotinylated).
T2 construct: also called 51G02
The description is as above.

Sequence of DH6 anti-DLL3 trispecific protein (chain, as listed by the source): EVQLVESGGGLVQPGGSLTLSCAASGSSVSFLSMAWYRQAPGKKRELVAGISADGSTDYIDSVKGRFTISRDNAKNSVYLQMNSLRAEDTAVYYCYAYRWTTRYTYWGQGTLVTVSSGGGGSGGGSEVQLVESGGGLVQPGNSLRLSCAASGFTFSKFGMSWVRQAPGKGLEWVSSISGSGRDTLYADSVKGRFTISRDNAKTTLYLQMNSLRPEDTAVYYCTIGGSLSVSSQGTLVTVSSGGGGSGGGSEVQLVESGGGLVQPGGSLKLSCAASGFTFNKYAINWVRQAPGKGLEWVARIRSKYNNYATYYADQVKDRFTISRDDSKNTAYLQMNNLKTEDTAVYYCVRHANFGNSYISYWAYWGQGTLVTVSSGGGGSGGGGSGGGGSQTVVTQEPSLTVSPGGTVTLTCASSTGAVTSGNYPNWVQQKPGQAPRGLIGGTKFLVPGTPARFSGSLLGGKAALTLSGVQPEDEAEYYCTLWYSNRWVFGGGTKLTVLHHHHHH
Sequence of DH43 anti-DLL3 trispecific protein (chain, as listed by the source): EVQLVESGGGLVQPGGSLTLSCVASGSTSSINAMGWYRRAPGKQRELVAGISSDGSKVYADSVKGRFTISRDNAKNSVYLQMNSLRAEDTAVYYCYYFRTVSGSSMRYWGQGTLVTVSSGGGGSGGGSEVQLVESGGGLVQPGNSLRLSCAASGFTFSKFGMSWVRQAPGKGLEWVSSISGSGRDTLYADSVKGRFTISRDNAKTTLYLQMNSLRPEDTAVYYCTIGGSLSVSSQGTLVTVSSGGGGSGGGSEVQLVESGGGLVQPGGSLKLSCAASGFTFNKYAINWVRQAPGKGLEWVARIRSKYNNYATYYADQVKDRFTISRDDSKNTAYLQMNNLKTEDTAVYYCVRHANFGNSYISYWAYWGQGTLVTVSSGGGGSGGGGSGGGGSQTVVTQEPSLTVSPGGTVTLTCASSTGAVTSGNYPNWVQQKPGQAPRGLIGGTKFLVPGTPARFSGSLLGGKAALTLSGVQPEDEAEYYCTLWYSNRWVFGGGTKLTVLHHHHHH
Sequence of DH3 anti-DLL3 trispecific protein (chain, as listed by the source): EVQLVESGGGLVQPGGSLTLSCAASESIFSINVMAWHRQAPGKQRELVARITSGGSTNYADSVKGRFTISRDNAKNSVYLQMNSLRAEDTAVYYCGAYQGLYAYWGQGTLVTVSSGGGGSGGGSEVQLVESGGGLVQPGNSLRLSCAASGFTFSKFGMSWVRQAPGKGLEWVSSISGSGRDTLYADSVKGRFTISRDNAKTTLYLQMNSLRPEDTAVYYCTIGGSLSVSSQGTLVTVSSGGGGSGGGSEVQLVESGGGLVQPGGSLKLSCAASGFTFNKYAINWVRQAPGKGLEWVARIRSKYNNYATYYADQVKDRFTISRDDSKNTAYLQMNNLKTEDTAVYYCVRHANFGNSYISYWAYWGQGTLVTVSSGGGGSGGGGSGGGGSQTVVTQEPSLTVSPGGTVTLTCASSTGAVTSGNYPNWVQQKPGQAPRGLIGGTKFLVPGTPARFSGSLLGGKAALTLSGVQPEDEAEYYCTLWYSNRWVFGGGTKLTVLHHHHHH
Sequence of DH51 anti-DLL3 trispecific protein (chain, as listed by the source): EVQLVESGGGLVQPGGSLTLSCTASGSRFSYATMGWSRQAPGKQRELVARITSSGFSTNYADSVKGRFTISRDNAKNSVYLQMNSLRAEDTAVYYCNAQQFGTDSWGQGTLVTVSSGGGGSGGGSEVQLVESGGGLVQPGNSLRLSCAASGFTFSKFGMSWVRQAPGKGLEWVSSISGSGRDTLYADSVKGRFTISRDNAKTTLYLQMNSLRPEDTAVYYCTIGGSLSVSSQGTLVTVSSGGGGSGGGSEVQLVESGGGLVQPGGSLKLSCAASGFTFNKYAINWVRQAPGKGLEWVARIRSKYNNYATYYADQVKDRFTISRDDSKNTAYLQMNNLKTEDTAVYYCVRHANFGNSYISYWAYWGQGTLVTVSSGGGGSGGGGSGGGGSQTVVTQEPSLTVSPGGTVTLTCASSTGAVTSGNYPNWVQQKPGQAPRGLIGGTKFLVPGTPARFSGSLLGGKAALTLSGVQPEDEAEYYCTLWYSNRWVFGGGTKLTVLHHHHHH
Sequence of DH89 anti-DLL3 trispecific protein (chain, as listed by the source): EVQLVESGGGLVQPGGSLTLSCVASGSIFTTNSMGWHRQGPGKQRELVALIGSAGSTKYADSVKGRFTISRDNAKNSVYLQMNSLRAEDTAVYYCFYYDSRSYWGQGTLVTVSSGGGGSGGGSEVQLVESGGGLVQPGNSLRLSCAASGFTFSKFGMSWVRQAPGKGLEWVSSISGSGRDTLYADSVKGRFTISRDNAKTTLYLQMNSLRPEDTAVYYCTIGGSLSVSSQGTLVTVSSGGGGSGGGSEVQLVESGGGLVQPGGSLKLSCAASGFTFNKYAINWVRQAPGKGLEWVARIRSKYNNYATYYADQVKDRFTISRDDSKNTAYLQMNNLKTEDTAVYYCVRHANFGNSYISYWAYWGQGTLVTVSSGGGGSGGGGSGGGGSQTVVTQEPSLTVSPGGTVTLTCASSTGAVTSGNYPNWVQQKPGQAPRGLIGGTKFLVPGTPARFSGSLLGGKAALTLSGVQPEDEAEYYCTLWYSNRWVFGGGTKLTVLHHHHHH
Sequence of DH10 anti-DLL3 trispecific protein (chain, as listed by the source): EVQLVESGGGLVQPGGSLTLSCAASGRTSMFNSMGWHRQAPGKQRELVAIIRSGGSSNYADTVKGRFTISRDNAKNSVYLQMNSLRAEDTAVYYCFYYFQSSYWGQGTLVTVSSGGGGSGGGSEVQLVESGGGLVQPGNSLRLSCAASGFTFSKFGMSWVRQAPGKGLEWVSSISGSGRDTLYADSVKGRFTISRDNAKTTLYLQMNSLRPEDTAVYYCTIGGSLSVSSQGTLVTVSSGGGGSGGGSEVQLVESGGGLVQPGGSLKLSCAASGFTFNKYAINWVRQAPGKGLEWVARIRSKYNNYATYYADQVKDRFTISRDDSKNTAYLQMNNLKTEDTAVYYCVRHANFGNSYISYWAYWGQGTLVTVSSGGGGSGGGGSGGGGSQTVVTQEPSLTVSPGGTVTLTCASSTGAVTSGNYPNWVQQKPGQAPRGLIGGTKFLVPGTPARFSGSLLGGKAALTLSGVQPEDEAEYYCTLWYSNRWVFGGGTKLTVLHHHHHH
Sequence of DH12 anti-DLL3 trispecific protein (chain, as listed by the source): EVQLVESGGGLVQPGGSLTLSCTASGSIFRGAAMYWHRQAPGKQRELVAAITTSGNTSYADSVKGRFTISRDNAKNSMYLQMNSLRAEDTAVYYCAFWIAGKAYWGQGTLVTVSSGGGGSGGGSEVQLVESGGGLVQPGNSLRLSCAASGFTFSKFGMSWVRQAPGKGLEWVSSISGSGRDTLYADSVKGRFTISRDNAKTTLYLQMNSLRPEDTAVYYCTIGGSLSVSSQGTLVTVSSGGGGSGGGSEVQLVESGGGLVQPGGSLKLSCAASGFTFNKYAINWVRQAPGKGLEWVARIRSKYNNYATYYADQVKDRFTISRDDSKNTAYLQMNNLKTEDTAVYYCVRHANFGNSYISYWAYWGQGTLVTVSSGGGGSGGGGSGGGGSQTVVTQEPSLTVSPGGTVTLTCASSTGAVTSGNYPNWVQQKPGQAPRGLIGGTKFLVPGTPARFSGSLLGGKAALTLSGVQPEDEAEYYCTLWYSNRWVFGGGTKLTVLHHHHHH
Sequence of 41D07 anti-DLL3 trispecific protein (chain, as listed by the source): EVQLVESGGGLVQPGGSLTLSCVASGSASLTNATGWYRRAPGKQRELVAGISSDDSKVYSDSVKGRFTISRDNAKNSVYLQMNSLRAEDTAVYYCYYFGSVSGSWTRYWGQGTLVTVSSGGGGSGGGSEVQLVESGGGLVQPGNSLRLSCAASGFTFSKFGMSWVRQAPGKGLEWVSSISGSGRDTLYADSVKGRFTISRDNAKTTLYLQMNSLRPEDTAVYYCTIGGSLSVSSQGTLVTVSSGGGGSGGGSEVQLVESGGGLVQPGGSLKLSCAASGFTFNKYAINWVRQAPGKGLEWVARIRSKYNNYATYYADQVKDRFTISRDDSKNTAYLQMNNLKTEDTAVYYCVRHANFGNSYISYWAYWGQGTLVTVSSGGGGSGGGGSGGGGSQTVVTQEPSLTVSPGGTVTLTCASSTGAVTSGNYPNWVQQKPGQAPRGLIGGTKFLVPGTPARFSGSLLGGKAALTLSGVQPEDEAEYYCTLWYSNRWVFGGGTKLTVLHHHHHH
Sequence of DH94 anti-DLL3 trispecific protein (chain, as listed by the source): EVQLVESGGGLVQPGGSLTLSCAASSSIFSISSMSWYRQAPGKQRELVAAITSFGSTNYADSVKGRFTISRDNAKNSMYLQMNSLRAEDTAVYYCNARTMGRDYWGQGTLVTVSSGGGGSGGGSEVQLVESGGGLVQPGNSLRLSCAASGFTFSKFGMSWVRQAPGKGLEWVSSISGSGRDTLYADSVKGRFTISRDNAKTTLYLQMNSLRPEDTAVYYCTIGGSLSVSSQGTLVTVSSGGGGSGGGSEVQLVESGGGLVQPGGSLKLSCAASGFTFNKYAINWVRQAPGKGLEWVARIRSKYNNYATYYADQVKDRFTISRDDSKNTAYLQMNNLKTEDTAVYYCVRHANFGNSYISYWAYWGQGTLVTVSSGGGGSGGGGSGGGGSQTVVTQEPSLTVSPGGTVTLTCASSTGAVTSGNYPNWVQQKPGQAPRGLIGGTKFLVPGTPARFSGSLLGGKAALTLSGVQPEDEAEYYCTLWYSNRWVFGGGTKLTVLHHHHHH

B1: human DLL3 protein expressed as human IgG1-Fc fusion (Fc fusion)
chain: AGVFELQIHSFGPGPGPGAPRSPCSARLPCRLFFRVCLKPGLSEEAAESPCALGAALSARGPVYTEQPGAPAPDLPLPDGLLQVPFRDAWPGTFSFIIETWREELGDQIGGPAWSLLARVAGRRRLAAGGPWARDIQRAGAWELRFSYRARCEPPAVGTACTRLCRPRSAPSRCGPGLRPCAPLEDECEAPLVCRAGCSPEHGFCEQPGECRCLEGWTGPLCTVPVSTSSCLSPRGPSSATTGCLVPGPGPCDGNPCANGGSCSETPRSFECTCPRGFYGLRCEVSGVTCADGPCFNGGLCVGGADPDSAYICHCPPGFQGSNCEKRVDRCSLQPCRNGGLCLDLGHALRCRCRAGFAGPRCEHDLDDCAGRACANGGTCVEGGGAHRCSCALGFGGRDCRERADPCAARPCAHGGRCYAHFSGLVCACAPGYMGARCEFPVHPDGASALPAAPPGLRPGDPQRYL
notes: also called huDLL3; not shown: human IgG1 Fc
As for B1, the dissociation constant Kd (commonly the equilibrium constant for the complex coming apart) in assay [1] is 42 nM; in assay [2] it was 3.5 nM; in assay [3], 3.9 nM; in [4], 5.3 nM; in assay [5], 1.3 nM; in assay [6] it was 17.4 nM. Further, the Kd is 7 nM in assay [7]; 1 nM in assay [8]; 6.5 nM in assay [9]; 6.8 nM in assay [10]; 9.9 nM in assay [11]; 2.1 nM in assay [12]. The Kd in [13] was determined as 5.6 nM; in assay [14], 41.9 nM; in assay [15], 11.9 nM; in [16] it was 4.3 nM; in assay [17] it was 4.3 nM; in [18] it was 1.9 nM. In addition, the Kd in [19] was 0.5 nM; in [20], 5.1 nM; in assay [21] it was 20.6 nM; in assay [22], 8.1 nM; in [23] it was 3.3 nM; in assay [24], 6.1 nM. Besides, the Kd was determined as 10.6 nM in [25]; 8.4 nM in assay [26]; 1.2 nM in assay [27]; 16.2 nM in assay [28]; 0.8 nM in assay [29]; 6.6 nM in [30]. The Kd is 4.7 nM in assay [31]; 15.2 nM in [32]; 6.9 nM in assay [33]; 18 nM in [34]; 2.6 nM in [35].

B2: human DLL3 (Example 6) (ligand)
chain: AGVFELQIHSFGPGPGPGAPRSPCSARLPCRLFFRVCLKPGLSEEAAESPCALGAALSARGPVYTEQPGAPAPDLPLPDGLLQVPFRDAWPGTFSFIIETWREELGDQIGGPAWSLLARVAGRRRLAAGGPWARDIQRAGAWELRFSYRARCEPPAVGTACTRLCRPRSAPSRCGPGLRPCAPLEDECEAPLVCRAGCSPEHGFCEQPGECRCLEGWTGPLCTVPVSTSSCLSPRGPSSATTGCLVPGPGPCDGNPCANGGSCSETPRSFECTCPRGFYGLRCEVSGVTCADGPCFNGGLCVGGADPDSAYICHCPPGFQGSNCEKRVDRCSLQPCRNGGLCLDLGHALRCRCRAGFAGPRCEHDLDDCAGRACANGGTCVEGGGAHRCSCALGFGGRDCRERADPCAARPCAHGGRCYAHFSGLVCACAPGYMGARCEFPVHPDGASALPAAPPGLRPGDPQRYL
notes: also called huDLL3
On to B2, for which the Kd in assay [36] was 2.2 nM.

B3: biotinylated human DLL3 protein expressed as a human IgG1 fusion protein (Fc fusion, not shown: a dimerising Fc or GST)
chain: AGVFELQIHSFGPGPGPGAPRSPCSARLPCRLFFRVCLKPGLSEEAAESPCALGAALSARGPVYTEQPGAPAPDLPLPDGLLQVPFRDAWPGTFSFIIETWREELGDQIGGPAWSLLARVAGRRRLAAGGPWARDIQRAGAWELRFSYRARCEPPAVGTACTRLCRPRSAPSRCGPGLRPCAPLEDECEAPLVCRAGCSPEHGFCEQPGECRCLEGWTGPLCTVPVSTSSCLSPRGPSSATTGCLVPGPGPCDGNPCANGGSCSETPRSFECTCPRGFYGLRCEVSGVTCADGPCFNGGLCVGGADPDSAYICHCPPGFQGSNCEKRVDRCSLQPCRNGGLCLDLGHALRCRCRAGFAGPRCEHDLDDCAGRACANGGTCVEGGGAHRCSCALGFGGRDCRERADPCAARPCAHGGRCYAHFSGLVCACAPGYMGARCEFPVHPDGASALPAAPPGLRPGDPQRYL
modifications: biotinylated
For the molecule B3, the Kd is 8.9 nM in assay [37]; 9 nM in assay [38]; 0.3 nM in [39]; 34 nM in [40]; 7.7 nM in assay [41]; 9.9 nM in assay [42].

B4: cynomolgus DLL3 (ligand)
chain: AGVFELQIHSFGPGPGGAPRSPYSARGPCRLFFRVCLKPGLSEEAAESPCALGAALSARGPVYTEQPEAPAPDLPLPNGLLQVPFRDAWPGTFSLIIETWREELGDQIGGPAWSLLARVTRRRRLAAGGPWAGDIQRAGAWELRFSYRARCELPAVGTACTRLCRPRSASRCGPGLRPCAPLEDECEAPPVCRAGCSLEHGFCEQPGECRCLEGWTGPLCMVPVSTSSCLGLRGPSSTTTGCLVPGPGPCDGNPCANGGSCSETPGSFECTCPRGFYGLRCEVSGVTCADGPCFNGGLCVGGADPDSAYICHCPPGFQGSNCEKRVDRCSLQPCRNGGLCLDLGHALRCRCRAGFAGPRCEHDLNDCAGRACANGGTCVEGGGAHRCSCALGFGGRDCRERADPCAARPCAHGGRCYAHFSGLVCACAPGYMGARCEFPVHPDGVSALPAAPPGLRPGDPQRYP
notes: also called cyDLL3
Consider B4, for which the Kd in assay [43] is 8.5 nM; in assay [44], 10 nM; in assay [45] it was 1.4 to 3.4 nM; in assay [46], 1.4 to 3.4 nM.

The record behind these values is US20240141072A1 (published 2024).
